Assay results: US7521540B2, “CYR61 compositions and methods” (Munin Corporation, priority 1996, dated 2009)

Columns and labels:
HUVE cells = test: HUVE cell attachment to murine Cyr61-coated plates; assay type: cell-based, human
Procedure: Another embodiment of the invention is directed to the use of Cyr61 to mediate cellular attachment to the extracellular matrix. Induction of cellular adhesion was investigated using murine Cyr61, fibronectin, and bovine serum albumin (BSA). Immunological 96-well plates (Falcon brand) were coated with 50 μl of 0.1% BSA in PBS at 4° C. in the presence of 0-30 μg/ml concentrations of murine Cyr61 or fibronectin. After two hours exposure to the coating solution, non-diluted immune or pre-immune antisera (30 μl/well), or affinity-purified anti-Cyr61 antibodies were added. For some wells, the coating mixture was adjusted to 10 mM DTT or 100 mM HCl. After 16 hours incubation, the coating solution was removed and the well surface was blocked with 1% BSA in phosphate-buffered saline (PBS) for 1 hour at room temperature. HUVE cells were plated in Ham's complete F12K medium [GIBCO-BRL, Inc.; Ham, Proc. Natl. Acacd. Sci. (USA) 53:786 (1965)] at 5×10^3-10^4 cells/well. Cycloheximide was added to 100 μg/ml immediately before plating and monensin was added to 1 μM 14 hours before plating. After a 2-hour incubation at 37° C., the wells were washed with PBS and attached cells were fixed and stained with methylene blue. The attachment efficiency was determined by quantitative dye extraction and measurement of the extract absorbance at 650 nm. Oliver et al., J. Cell. Sci. 92:513-518 (1989).

[1] = system: 1064SK primary human foreskin fibroblasts; test: Fibroblast adhesion assay (methylene blue, A620); assay type: cell-based
Procedure: The ability of Cyr61 to mediate cell adhesion in normal fibroblasts was investigated. Microtiter wells were coated with purified recombinant Cyr61 protein, and 1064SK primary human foreskin fibroblasts were allowed to adhere under serum-free conditions. […] 50 μl cell suspensions were plated on microtiter wells coated with varying concentrations (0.5-5.0 μg/ml) of Cyr61 protein. After incubation at 37° C. for 30 minutes, adherent cells were fixed and stained with methylene blue.
In another experiment, microtiter wells were coated with either BSA, Cyr61 (2 μg/ml), or vitronectin (VN; 0.5 μg/ml) and blocked with affinity-purified anti-Cyr61 antibodies for one hour at 37° C. before 1064SK cells were plated.
The effects of divalent cations in cell adhesion to Cyr61 was also investigated. […] Data are means from triplicate determinations. […] Inhibition by Ca^2+ is characteristic of adhesion through some members of the β1 family of integrins, including receptors that bind type I collagen, laminin, and vitronectin (integrins α2β1, α6β1, and αVβ1) in fibroblasts, as well as the lymphocyte-specific integrin αLβ2.
The effects of RGD peptides on Cyr61-mediated fibroblast binding was tested by plating cells in wells coated with Cyr61 (2 μg/ml). Type I collagen (2 μg/ml) or vitronectin (0.5 μg/ml), 2 mM GRGDSP or GRGESP peptide was then added.
Cells were also pre-incubated with 40 μg/ml monoclonal antibodies against the integrin α5 or the integrin αV subunits at room temperature for 30 minutes, then plated on wells coated with Cyr61 (2 μg/ml), vitronectin (0.5 μg/ml) or fibronectin (FN, 1 μg/ml). […] The data are means, representative of three experiments.
The 1064 SK cells were also analyzed using the monoclonal antibody JBIA, which binds the β1 integrin subunit. Cells were pre-incubated with the antibody (50 μg/ml) before plating on microtiter wells coated with Cyr61 (2 μg/ml), Type I collagen (2 μg/ml), or vitronectin (0.5 μg/ml). […] Data are means, representative of three experiments.
To identify the specific β1 integrin that mediates fibroblast adhesion to Cyr61, the inhibitory effects of function-blocking monoclonal antibodies were tested against various integrin α subunits. […] The data are means, representative of at least three experiments.

αllbβ3 = molecular target: T1, αllbβ3 (Homo sapiens, UniProt P05106+P08514); test: Solid-phase binding assay with purified integrin; conditions: for Kd: RGD-affinity purified αllbβ3, immobilized protein, read-out: half-saturation of activated αllbβ3 binding
T1 construct: from tissue; host or cells: outdated human platelets
Procedure: In these experiments, activated and unactivated αllbβ3 were purified from platelet lysates. Activated αllbβ3 was purified by RGD affinity chromatography, as described (Knezevic et al., J. Biol. Chem. 271:16416-16421 [1996]). Briefly, outdated human platelets were isolated by differential centrifugation and solubilized in lysis buffer (10 mM HEPES, pH 7.4, 0.15 M NaCl, containing 1 mM CaCl2, 1 mM MgCl2 100 μM leupeptin, 1 mM phenylmethylsulfonyl fluoride, 10 mM-ethylmaleimide, and 50 mM octylglucoside). The octylglucoside extract was incubated with 1 ml GRGDSPK-coupled Sepharose 4B overnight at 4° C. After washing with 15 ml column buffer (same as lysis buffer except it contained 25 mM octylglucoside), bound αllbβ3 was eluted with 1.7 mM H12 (2 ml) in column buffer. The H12 eluate was applied to a Sephacryl S-300 High Resolution column (1.5×95 cm), and αllbβ3 was eluted with 10 mM HEPES, pH 7.4, 0.15 M NaCl, 1 mM CaCl2, 1 mM MgCl2 and 25 mM octylglucoside.
Unactivated αllbβ3 was isolated by the method of Fitzgerald et al., Anal. Biochem. 151:169-177 (1985), with slight modifications. The flow-through fraction of the GRGDSPK-Sepharose column was applied to a concanavalin A-Sepharose 4B column (1×20 cm). Unbound proteins were washed with 50 ml column buffer, and bound αllbβ3 was then eluted with 100 mM mannose dissolved in column buffer. Fractions containing αllbβ3 were further purified on a Sephacryl S-300 High Resolution column
To perform the solid-phase binding assay, purified αllbβ3 was added to wells coated with either Cyr61 or Fisp12 (mCTGF) in the presence or absence of inhibitors and binding was allowed to proceed for 3 hours at 37° C. Unbound receptor was removed and the wells wee washed twice with HEPES-Tyrode's Buffer. The binding of purified αllbβ3 to Cyr61 or Fisp12/mCTGF immobilized onto microtiter wells was detected with ^125I-mAb15.

macrophages = test: Macrophage binding, antibody inhibition studies; assay type: cell-based
Text: It is also expected that Cyr61 will promote the migration of macrophages, thus serving a role in attracting and retaining macrophages at the site of a wound. Consequently, Cyr61 is expected to play a role in the inflammatory response of mammals, and modulation of Cyr61 activity is expected to influence the inflammatory response.

B1: Cyr61: Cysteine-rich ECM signaling protein; murine sequence SEQ ID NO:2, recombinant from Baculovirus-infected Sf9 cells (protein, listed as Mus musculus)
chain: MSSSTFRTLAVAVTLLHLTRLALSTCPAACHCPLEAPKCAPGVGLVRDGCGCCKVCAKQLNEDCSKTQPCDHTKGLECNFGASSTALKGICRAQSEGRPCEYNSRIYQNGESFQPNCKHQCTCIDGAVGCIPLCPQELSLPNLGCPNPRLVKVSGQCCEEWVCDEDSIKDSLDDQDDLLGLDASEVELTRNNELIAIGKGSSLKRLPVFGTEPRVLFNPLHAHGQKCIVQTTSWSQCSKSCGTGISTRVTNDNPECRLVKETRICEVRPCGQPVYSSLKKGKKCSKTKKSPEPVRFTYAGCSSVKKYRPKYCGSCVDGRCCTPLQTRTVKMRFRCEDGEMFSKNVMMIQSCKCNYNCPHPNEASFRLYSLFNDIHKFRD
**Q.** What does the source list for B1?
**A.** HUVE cell attachment, A650 (HUVE cells; coating 1 μg/ml): 0.1 A650; HUVE cell attachment, A650 (HUVE cells; coating 30 μg/ml): 0.8 A650; coating concentration at which maximal adhesion was reached [1]: 1 µg/mL; inhibition by anti-α6 antibody of binding mediated by the coated protein ([1]; anti-α6 20 μg/ml): 78%; 1064SK adhesion, absorbance ([1]; coating 0.5 μg/ml): about 0.3 A620; 1064SK adhesion, absorbance ([1]; coating 1-5 μg/ml): 0.45-0.55 A620; support of 1064SK fibroblast adhesion ([1]; protein coated on wells): dose-dependent and saturable; binding of activated versus unactivated αllbβ3 (αllbβ3): greater binding of activated versus unactivated; Kd (αllbβ3): 25 nM; binding to macrophages (macrophages): binds to macrophages via yet another integrin, the αMβ2 integrin

B2: Fisp12: Cysteine-rich murine protein, SEQ ID NO:6, mouse ortholog of CTGF (protein, listed as Mus musculus)
chain: MLASVAGPISLALVLLALCTRPATGQDCSAQCQCAAEAAPHCPAGVSLVLDGCGCCRVCAKQLGELCTERDPCDPHKGLFCDFGSPANRKIGVCTAKDGAPCVFGGSVYRSGESFQSSCKYQCTCLDGAVGCVPLCSMDVRLPSPDCPFPRRVKLPGKCCKEWVCDEPKDRTAVGPALAAYRLEDTFGPDPTMMRANCLVQTTEWSACSKTCGMGISTRVTNDNTFCRLEKQSRLCMVRPCEADLEENIKKGKKCIRTPKIAKPVKFELSGCTSVKTYRAKFCGVCTDGRCCTPHRTTTLPVEFKCPDGEIMKKNMMFIKTCACHYNCPGDNDIFESLYYRKMYGDMA
**Q.** What does the source list for B2?
**A.** binding of activated versus unactivated αllbβ3 (αllbβ3): greater binding of activated versus unactivated; Kd (αllbβ3): 15 nM
